In patent publication US20240109962A1 (SPARX BIOSCIENCE, published 2024):

Assays:
[1] = biological target: T1, human LILRB2 expressed on cells (293T-LILRB2, CHO-K1-LILRB2) (human, UniProt Q8N423 22-597); experiment: flow cytometry, blockade of His-tagged HLA-G tetramer binding to 293T-LILRB2 cells; fit table under the graph
T1 construct: whole, on cells; the cell line is named under assay; also called HEK293T-LILRB2
Experimental: Serial diluted humanized LILRB2 antibodies were then added to the mixture and incubated at room temperature for another 45 minutes. The binding of HLA-G/LILRB2 was detected afterwards using a secondary PE-labeled anti-His tag antibody via flow cytometry.

[2] = biological target: LILRB2 antigen of the ELISA of Table 5 (format not specified) (UniProt Q8N423 22-460, limits assumed); experiment: ELISA, antibody titration
[3] = biological target: T1, human LILRB2 expressed on cells …; experiment: flow cytometry, 293T-LILRB2 cells
Description: The fluorescent signals were detected by flow cytometry.

[4] = biological target: T1, human LILRB2 expressed on cells …; experiment: flow cytometry, His-HLA-A2 tetramer (competitor) bound to 293T-LILRB2 cells, relative to no antibody; set-up: concentration or dose not given beside the values
Experimental: Serial diluted h#2E1 antibodies were then added to the mixture and incubated at room temperature for another 45 minutes. […]

[5] = biological target: T2, recombinant human LILRB2 protein (human, UniProt Q8N423 22-460, limits assumed); experiment: ELISA, coated recombinant human LILRB2; set-up: unit not given here
T2 construct: also called recombinant LILRB2 protein
Experimental: This affinity maturation library was screened against human LILRB2 to identify antibodies having high binding affinity to LILRB2. Briefly, an ELISA plate was coated with 0.1 ug/well recombinant human LILRB2 protein. Serial diluted maturated h#2E1 antibodies were incubated in the LILRB2 coated plate for 2 hrs. The plate was washed and a secondary HRP-labeled anti-human IgG was then added to each well. After being incubated at room temperature for 1 hour, the colorimetric ELISA signals were developed by adding the TMB substrate and reaction was stopped by 1M H3PO4. Table 7 below provides binding activities of exemplary matured antibodies to recombinant LILRB2 protein.

T1 sequence (Q8N423 22-597): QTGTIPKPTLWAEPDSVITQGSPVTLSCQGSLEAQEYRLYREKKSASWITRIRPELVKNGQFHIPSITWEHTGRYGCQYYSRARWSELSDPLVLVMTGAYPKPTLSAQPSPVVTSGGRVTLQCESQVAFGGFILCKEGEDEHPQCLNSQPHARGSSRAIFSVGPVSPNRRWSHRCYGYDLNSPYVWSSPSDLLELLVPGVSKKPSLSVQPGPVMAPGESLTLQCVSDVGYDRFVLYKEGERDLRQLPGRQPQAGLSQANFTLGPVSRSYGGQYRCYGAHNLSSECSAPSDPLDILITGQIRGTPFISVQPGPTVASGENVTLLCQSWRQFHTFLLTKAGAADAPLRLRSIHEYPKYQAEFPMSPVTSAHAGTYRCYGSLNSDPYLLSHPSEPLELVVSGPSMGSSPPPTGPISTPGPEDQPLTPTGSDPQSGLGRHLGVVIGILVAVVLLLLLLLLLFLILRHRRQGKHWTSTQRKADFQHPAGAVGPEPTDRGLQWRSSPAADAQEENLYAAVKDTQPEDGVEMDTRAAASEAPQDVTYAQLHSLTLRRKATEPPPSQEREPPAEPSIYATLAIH
T2 sequence (Q8N423 22-460 limits assumed): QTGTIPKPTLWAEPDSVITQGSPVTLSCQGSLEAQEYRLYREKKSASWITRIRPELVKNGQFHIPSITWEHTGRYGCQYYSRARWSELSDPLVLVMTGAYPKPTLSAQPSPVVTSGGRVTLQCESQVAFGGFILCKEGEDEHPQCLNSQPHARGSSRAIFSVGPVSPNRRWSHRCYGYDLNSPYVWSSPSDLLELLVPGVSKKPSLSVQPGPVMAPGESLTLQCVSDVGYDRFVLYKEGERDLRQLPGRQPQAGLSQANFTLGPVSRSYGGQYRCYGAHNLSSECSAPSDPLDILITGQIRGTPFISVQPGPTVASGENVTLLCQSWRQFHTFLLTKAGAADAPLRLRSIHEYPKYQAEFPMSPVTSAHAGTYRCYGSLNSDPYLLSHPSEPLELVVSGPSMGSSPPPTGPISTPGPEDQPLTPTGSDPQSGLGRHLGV
Chain of LILRB2 antigen of the ELISA of Table 5 (format not specified) (Q8N423 22-460 limits assumed): as above

Row | Binder | IC50 [1] [nM] | Kd [2] [nM] | Bmax [3] | % no Ab [4] [%] | Bmax [5]
1 | chimeric 9B6 (antibody, V domains shown) VH: DVQLVESGGGLVQPGWSRILSCAASGFTFSNFGMHWVRQAPEKGLEWVAYISSGSGTIYYSDTVRGRFTISRDNPKNTLFLLMTSLRSEDTAMYYCTRSDYDGDWFFDVWGAGTTVTVSS VL: DIVMTQSHRFLSTSVGDRVTITCKASQDVTTAVAWCQQKPGQSPKLLIYSASFRYTGVPDRFTGSGSGTDFTFTINNVQAEDLALYYCQQHFTTPLTFGAGTKLELK | ~0.833 | – | – | – | –
2 | Antibody 13C4 (antibody, V domains shown, Mouse hybridoma mAb purified from ascites) VH: QIHLVQSGPELKKPGETVKISCKASGYTFTNYGMNWVKQAPGKALKWMGWMNTYIGEPTYADDFKGRFAFSLETSASTAYLQINNLKNEDMATYFCARRGDYASYYFDYWGQGTTLTVSS VL: DIVLTQSPATLSVTPGDSVSLSCRASQNINNNLHWYHQKSHESPRLLIKYASQSISGIPSRVSGSGSGTDFTLSIVTVETEDFGMFFCQQSNSWPHTFGGGTKLEIR | – | 11.7 | – | – | –
3 | Antibody 2E1_FD4 (antibody, V domains shown) VH: EVQLVESGGGLVQPGGSLRLSCAVSGYSITSGYYWNWIRQAPGKGLEWVAYISYDGNPNYNPSLKNRFTISRDTSKNTFYLQMNSLRAEDTAVYYCAREESTMITTAWFAYWGQGTLVTVSS VL: DIQMTQSPSSLSASVGDRVTITCRASENIYSNLAWYQQKPGKAPKLLIYGATNLASGVPSRFSGSGSGTDYTLTISSLQPEDFATYYCQHFWDTPYTFGQGTKVEIK | – | – | 431000 | 49 | 1.14
4 | Antibody 2E1_FG4 (antibody, V domains shown) VH: EVQLVESGGGLVQPGGSLRLSCAVSGYSITSGYYWNWIRQAPGKGLEWVAYISYDGNVNYNPSLKNRFTISRDTSKNTFYLQMNSLRAEDTAVYYCAREESTMITTAWFAYWGQGTLVTVSS VL: DIQMTQSPSSLSASVGDRVTITCRASENIYSNLAWYQQKPGKAPKLLIYGATNLASGVPSRFSGSGSGTDYTLTISSLQPEDFATYYCQHFWDTPYIFGQGTKVEIK | – | – | 434000 | 55.4 | 1.4
5 | Antibody 2E1_GA4 (antibody, V domains shown) VH: EVQLVESGGGLVQPGGSLRLSCAVSGYSITSGYAWNWIRQAPGKGLEWVAYISYDGNNNYNPSLKNRFTISRDTSKNTFYLQMNSLRAEDTAVYYCAREESTMITTAWFAYWGQGTLVTVSS VL: DIQMTQSPSSLSASVGDRVTITCVASENIYSNLAWYQQKPGKAPKLLIYGATNLASGVPSRFSGSGSGTDYTLTISSLQPEDFATYYCQHFWDTPYTFGQGTKVEIK | – | – | 725000 | – | 1.61
6 | Antibody 2E1_GG1 (antibody, V domains shown) VH: EVQLVESGGGLVQPGGSLRLSCAVSGYSITSGYAWNWIRQAPGKGLEWVAYISYDGNNNYNPSLKNRFTISRDTSKNTFYLQMNSLRAEDTAVYYCAREESTMITTAWFAYWGQGTLVTVSS VL: DIQMTQSPSSLSASVGDRVTITCRASENIYSNLAWYQQKPGKAPKLLIYGATNLASGVPSRFSGSGSGTDYTLTISSLQPEDFATYYCQHFWDTPYTFGQGTKVEIK | – | – | 688000 | – | 1.56
7 | Antibody 2E1_GA1 (antibody, V domains shown) VH: EVQLVESGGGLVQPGGSLRLSCAVSGYSITSGYYWWWIRQAPGKGLEWVAYISYDGNNNYNPSLKNRFTISRDTSKNTFYLQMNSLRAEDTAVYYCAREESTMITTAWFAYWGQGTLVTVSS VL: DIQMTQSPSSLSASVGDRVTITCRASENIYSNLAWYQQKPGKAPKLLIYGATNLASGVPSRFSGSGSGTDYTLTISSLQPEDFATYYCQHFWDTPYTFGQGTKVEIK | – | – | 739000 | – | 1.62
8 | Antibody 2E1_GE6 (antibody, V domains shown) VH: EVQLVESGGGLVQPGGSLRLSCAVSGYSITSGYYWWWIRQAPGKGLEWVAYISYDGNNNYNPSLKNRFTISRDTSKNTFYLQMNSLRAEDTAVYYCAREESTMITTAWFAYWGQGTLVTVSS VL: DIQMTQSPSSLSASVGDRVTITCRASENIYSNNAWYQQKPGKAPKLLIYGATYLASGVPSRFSGSGSGTDYTLTISSLQPEDFATYYCQHFWDTPYTFGQGTKVEIK | – | – | 665000 | – | 1.65
9 | Antibody 2E1_GH4 (antibody, V domains shown) VH: EVQLVESGGGLVQPGGSLRLSCAVSGYSITSGYYWWWIRQAPGKGLEWVAYISYDGNNNYNPSLKNRFTISRDTSKNTFYLQMNSLRAEDTAVYYCAREESTMITTAWFAYWGQGTLVTVSS VL: DIQMTQSPSSLSASVGDRVTITCRASENIYSNLAWYQQKPGKAPKLLIYGATNFASGVPSRFSGSGSGTDYTLTISSLQPEDFATYYCQHFWDTPYTFGQGTKVEIK | – | – | 646000 | – | 1.51
10 | Antibody 2E1_FF3 (antibody, V domains shown) VH: EVQLVESGGGLVQPGGSLRLSCAVSGYSITSGYYWNWIRQAPGKGLEWVAYISYDGNNSYNPSLKNRFTISRDTSKNTFYLQMNSLRAEDTAVYYCAREESTMITTAWFAYWGQGTLVTVSS VL: DIQMTQSPSSLSASVGDRVTITCRASENIYSNLAWYQQKPGKAPKLLIYGATNLASGVPSRFSGSGSGTDYTLTISSLQPEDFATYYCQHFWDTPYTFGQGTKVEIK | – | – | 434000 | – | 1.17
11 | Antibody 2E1_FE1 (antibody, V domains shown) VH: EVQLVESGGGLVQPGGSLRLSCAVSGYSITSGYYWNWIRQAPGKGLEWVAYISYDGNMNYNPSLKNRFTISRDTSKNTFYLQMNSLRAEDTAVYYCAREESTMITTAWFAYWGQGTLVTVSS VL: DIQMTQSPSSLSASVGDRVTITCRASENIYSNLAWYQQKPGKAPKLLIYGATNLASGVPSRFSGSGSGTDYTLTISSLQPEDFATYYCQHFWDTPYTFGQGTKVEIK | – | – | 690000 | – | –
12 | Antibody 2E1_GF8 (antibody, V domains shown) VH: EVQLVESGGGLVQPGGSLRLSCAVSGYSITSGYYWWWIRQAPGKGLEWVAYISYDGNNNYNPSLKNRFTISRDTSKNTFYLQMNSLRAEDTAVYYCAREESTMITTAWFAYWGQGTLVTVSS VL: DIQMTQSPSSLSASVGDRVTITCRGSENIYSNLAWYQQKPGKAPKLLIYGATNLASGVPSRFSGSGSGTDYTLTISSLQPEDFATYYCQHFWDTPYTFGQGTKVEIK | – | – | 688000 | – | 1.56
13 | Antibody 2E1_GC8 (antibody, V domains shown) VH: EVQLVESGGGLVQPGGSLRLSCAVSGYSITSGYYWWWIRQAPGKGLEWVAYISYDGNNNYNPSLKNRFTISRDTSKNTFYLQMNSLRAEDTAVYYCAREESTMITTAWFAYWGQGTLVTVSS VL: DIQMTQSPSSLSASVGDRVTITCRASENIYSNQAWYQQKPGKAPKLLIYGATNRASGVPSRFSGSGSGTDYTLTISSLQPEDFATYYCQHFWDTPYTFGQGTKVEIK | – | – | 697000 | – | 1.44
14 | Antibody 2E1_GH3 (antibody, V domains shown) VH: EVQLVESGGGLVQPGGSLRLSCAVSGYSITSGYYWNWIRQAPGKGLEWVAYISYDGNNNYNPSLKNRFTISRDTSKNTFYLQMNSLRAEDTAVYYCAREESTMITTAWFAYWGQGTLVTVSS VL: DIQMTQSPSSLSASVGDRVTITCRASENIYSNLAWYQQKPGKAPKLLIYGATNLSSGVPSRFSGSGSGTDYTLTISSLQPEDFATYYCQHFWDTPYTFGQGTKVEIK | – | – | 641000 | – | 1.14
15 | Antibody 2E1_GH11 (antibody, V domains shown) VH: EVQLVESGGGLVQPGGSLRLSCAVSGYSITSGYYWWWIRQAPGKGLEWVAYISYDGNNNYNPSLKNRFTISRDTSKNTFYLQMNSLRAEDTAVYYCAREESTMITTAWFAYWGQGTLVTVSS VL: DIQMTQSPSSLSASVGDRVTITCNASENIYSNLAWYQQKPGKAPKLLIYGATNLASGVPSRFSGSGSGTDYTLTISSLQPEDFATYYCQHFWDTPYTFGQGTKVEIK | – | – | 743000 | – | 1.58
16 | Antibody 2E1_GB7 (antibody, V domains shown) VH: EVQLVESGGGLVQPGGSLRLSCAVSGYSITSGYYWWWIRQAPGKGLEWVAYISYDGNNNYNPSLKNRFTISRDTSKNTFYLQMNSLRAEDTAVYYCAREESTMITTAWFAYWGQGTLVTVSS VL: DIQMTQSPSSLSASVGDRVTITCLASENIYSNLAWYQQKPGKAPKLLIYGATNLASGVPSRFSGSGSGTDYTLTISSLQPEDFATYYCQHFWDTPYTFGQGTKVEIK | – | – | 636000 | – | 1.48
17 | Antibody 2E1_FG2 (antibody, V domains shown) VH: EVQLVESGGGLVQPGGSLRLSCAVSGYSITSGYYWNWIRQAPGKGLEWVAYISYDGNTNYNPSLKNRFTISRDTSKNTFYLQMNSLRAEDTAVYYCAREESTMITTAWFAYWGQGTLVTVSS VL: DIQMTQSPSSLSASVGDRVTITCRASENIYSNLAWYQQKPGKAPKLLIYGATNLASGVPSRFSGSGSGTDYTLTISSLQPEDFATYYCQHFWDTPYVFGQGTKVEIK | – | – | 417000 | 53.6 | 1.26
18 | Antibody 2E1_GB8 (antibody, V domains shown) VH: EVQLVESGGGLVQPGGSLRLSCAVSGYSITSGYYWWWIRQAPGKGLEWVAYISYDGNNNYNPSLKNRFTISRDTSKNTFYLQMNSLRAEDTAVYYCAREESTMITTAWFAYWGQGTLVTVSS VL: DIQMTQSPSSLSASVGDRVTITCSASENIYSNLAWYQQKPGKAPKLLIYGATNLASGVPSRFSGSGSGTDYTLTISSLQPEDFATYYCQHFWDTPYTFGQGTKVEIK | – | – | 659000 | – | 1.47
